Measurements as given in patent US20250376539A1 (KIRA PHARMACEUTICALS SUZHOU, published 2025).

T1: recombinant human complement C2 (NP_000054.2), C-terminal 6His-tag, made in house (CHO cell expression) (human, UniProt P06681 21-752)
T1 construct: a linker before the tag is not described; also called human C2; Human C2
T1 sequence: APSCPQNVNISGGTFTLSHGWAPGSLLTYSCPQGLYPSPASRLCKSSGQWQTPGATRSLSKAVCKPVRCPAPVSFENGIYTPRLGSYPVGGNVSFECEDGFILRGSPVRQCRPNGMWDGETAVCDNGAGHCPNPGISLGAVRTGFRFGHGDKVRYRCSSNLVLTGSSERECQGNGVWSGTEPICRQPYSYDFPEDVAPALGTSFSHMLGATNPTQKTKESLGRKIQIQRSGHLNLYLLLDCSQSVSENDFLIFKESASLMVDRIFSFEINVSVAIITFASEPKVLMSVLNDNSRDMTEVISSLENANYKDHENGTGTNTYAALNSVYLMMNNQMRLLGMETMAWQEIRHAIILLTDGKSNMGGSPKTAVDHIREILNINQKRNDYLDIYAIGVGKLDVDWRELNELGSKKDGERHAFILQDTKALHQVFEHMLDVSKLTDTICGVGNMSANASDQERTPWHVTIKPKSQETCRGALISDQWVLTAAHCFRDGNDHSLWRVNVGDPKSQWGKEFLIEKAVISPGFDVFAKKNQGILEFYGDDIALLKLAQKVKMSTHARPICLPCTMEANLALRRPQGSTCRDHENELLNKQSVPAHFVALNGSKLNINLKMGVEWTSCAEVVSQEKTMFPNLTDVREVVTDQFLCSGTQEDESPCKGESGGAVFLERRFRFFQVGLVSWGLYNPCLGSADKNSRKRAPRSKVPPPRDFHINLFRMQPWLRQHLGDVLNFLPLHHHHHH

T2: recombinant cyno C2a, C-terminal 6His-tag, made in house (CHO cell expression) (cynomolgus monkey, UniProt P06681 244-752 (human entry))
T2 chain: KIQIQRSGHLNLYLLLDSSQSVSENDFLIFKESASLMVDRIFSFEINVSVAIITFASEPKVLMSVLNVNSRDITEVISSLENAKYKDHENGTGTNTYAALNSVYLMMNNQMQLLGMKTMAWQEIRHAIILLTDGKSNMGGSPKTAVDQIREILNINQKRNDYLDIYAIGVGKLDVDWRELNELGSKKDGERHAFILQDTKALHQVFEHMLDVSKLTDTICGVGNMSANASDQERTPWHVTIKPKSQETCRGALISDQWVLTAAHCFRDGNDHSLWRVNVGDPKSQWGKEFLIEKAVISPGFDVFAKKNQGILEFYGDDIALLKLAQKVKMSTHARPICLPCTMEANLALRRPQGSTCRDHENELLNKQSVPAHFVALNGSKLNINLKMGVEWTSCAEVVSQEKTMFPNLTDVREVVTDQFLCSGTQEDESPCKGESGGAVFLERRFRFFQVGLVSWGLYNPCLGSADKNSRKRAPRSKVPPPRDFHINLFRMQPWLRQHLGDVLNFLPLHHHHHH

T3: recombinant human C2a, C-terminal 6His-tag, made in house (CHO cell expression) (human, UniProt P06681 244-752)
T3 sequence: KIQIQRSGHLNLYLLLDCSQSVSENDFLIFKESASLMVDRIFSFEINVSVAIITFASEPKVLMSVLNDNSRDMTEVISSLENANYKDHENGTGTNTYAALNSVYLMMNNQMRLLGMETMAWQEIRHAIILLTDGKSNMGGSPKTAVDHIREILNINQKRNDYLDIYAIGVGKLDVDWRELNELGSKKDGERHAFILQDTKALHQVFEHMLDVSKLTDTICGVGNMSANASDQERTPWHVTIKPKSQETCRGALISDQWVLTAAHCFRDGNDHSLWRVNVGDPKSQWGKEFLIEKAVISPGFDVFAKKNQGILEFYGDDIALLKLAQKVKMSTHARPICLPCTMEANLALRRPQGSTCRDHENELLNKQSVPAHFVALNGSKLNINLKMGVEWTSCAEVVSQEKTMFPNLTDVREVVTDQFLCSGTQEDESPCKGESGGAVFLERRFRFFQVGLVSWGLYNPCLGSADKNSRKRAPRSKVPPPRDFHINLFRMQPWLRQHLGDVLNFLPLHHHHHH

T4: recombinant cynomolgus (cyno) complement C2 (XP_005553508.1), C-terminal 6His-tag, made in house (CHO cell … (cynomolgus monkey (Macaca fascicularis), UniProt P06681 21-752 (human entry)))
T4 construct: also called cyno C2; Cyno C2
T4 chain: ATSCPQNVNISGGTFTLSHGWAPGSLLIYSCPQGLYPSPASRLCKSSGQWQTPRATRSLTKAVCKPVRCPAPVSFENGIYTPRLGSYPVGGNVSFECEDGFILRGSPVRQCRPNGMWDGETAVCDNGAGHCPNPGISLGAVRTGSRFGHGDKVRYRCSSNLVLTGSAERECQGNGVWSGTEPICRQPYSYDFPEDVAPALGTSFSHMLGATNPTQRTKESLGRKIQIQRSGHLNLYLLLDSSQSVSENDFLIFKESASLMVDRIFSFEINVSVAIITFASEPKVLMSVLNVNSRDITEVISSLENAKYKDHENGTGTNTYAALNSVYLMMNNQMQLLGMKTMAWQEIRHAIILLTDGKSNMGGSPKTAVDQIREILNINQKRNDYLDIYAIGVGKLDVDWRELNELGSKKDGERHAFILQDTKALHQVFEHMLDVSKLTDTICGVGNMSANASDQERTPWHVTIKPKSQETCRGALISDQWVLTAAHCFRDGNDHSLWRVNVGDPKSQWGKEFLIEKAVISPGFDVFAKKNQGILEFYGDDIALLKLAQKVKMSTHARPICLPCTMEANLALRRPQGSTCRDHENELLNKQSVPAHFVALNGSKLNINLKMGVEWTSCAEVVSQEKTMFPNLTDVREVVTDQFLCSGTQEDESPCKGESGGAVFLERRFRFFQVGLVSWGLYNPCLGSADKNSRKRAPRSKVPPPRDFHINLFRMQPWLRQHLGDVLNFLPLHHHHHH


Key:
[1] = target: T1, recombinant human complement C2 …; assay: drawn kinetic table; method and antigen not printed on the sheet, legend paragraph 101 says only anti-C2 antibodies; human C2 taken from the context of Examples 5 and 10
[2] = target: T1, recombinant human complement C2 …; assay: kinetic binding measurement, table 'Human C2 binding affinity' with sensorgrams below it (assay not named on the sheet); lot 20211215P05
[3] = target: T1, recombinant human complement C2 …; assay: kinetic binding measurement, table 'Human C2 binding affinity' with sensorgrams below it (assay not named on the sheet); lot 20211228P03
[4] = target: T2, recombinant cyno C2a, C-terminal …; assay: ELISA on cyno C2a, OD450nm against log Ab conc. (nmol/L)
[5] = target: T3, recombinant human C2a, C-terminal …; assay: ELISA on human C2a, OD450nm against log Ab conc. (nmol/L)
[6] = target: T1, recombinant human complement C2 …; assay: ELISA
[7] = target: T4, recombinant cynomolgus (cyno) …; assay: ELISA
[8] = target: T3, recombinant human C2a, C-terminal …; assay: ELISA
[9] = target: T2, recombinant cyno C2a, C-terminal …; assay: ELISA

Binder	binding result [4]	binding result [5]	EC50 [6] [nM]	EC50 [7] [nM]	EC50 [8] [nM]	EC50 [9] [nM]	other results
3.2pHGL (3.2 pH construct derived from a human germline framework sequence) (antibody, V domains shown, also called germlined 3.2 pH) VH: EVQLLESGGGLVQPGGSLRLSCAASGFTFRHYAMSWVRQAPGKGLEWVSLISGSGASTHYADSVKGRFTISRDNSKNTLYLQMNSLRAEDTAVYYCAKDSLAVAGSEYFQHWGQGTLVTVSS VL: SYVLTQPPSVSVAPGQTARITCGHNYFGGKSVHWYQQKPGQAPVLVVYDDSDRPSGIPERFSGSNSGNTATLTISRVEAGDEADYYCQVYDTSSDHWVFGGGTKLTVL	–	–	–	–	–	–	Kd [1]: 0.138 nM; koff [1]: 4.05e-05 s⁻¹; kon [1]: 294000 M⁻¹ s⁻¹
3.2pHGL-IgG1-LALA-LS (3.2 pH-IgG1-LALA-LS derived from germline) (antibody, V domains shown, Heavy chain put together from the named parts) VH: EVQLLESGGGLVQPGGSLRLSCAASGFTFRHYAMSWVRQAPGKGLEWVSLISGSGASTHYADSVKGRFTISRDNSKNTLYLQMNSLRAEDTAVYYCAKDSLAVAGSEYFQHWGQGTLVTVSS VL: SYVLTQPPSVSVAPGQTARITCGHNYFGGKSVHWYQQKPGQAPVLVVYDDSDRPSGIPERFSGSNSGNTATLTISRVEAGDEADYYCQVYDTSSDHWVFGGGTKLTVLG	–	–	–	–	–	–	Kd [2]: 0.149 nM; koff [2]: 4.58e-05 s⁻¹; kon [2]: 309000 M⁻¹ s⁻¹; Kd [3]: 0.101 nM; koff [3]: 3.33e-05 s⁻¹; kon [3]: 330000 M⁻¹ s⁻¹
anti-C2 antibody 39.4 (antibody, IgG4, V domains shown, Recombinant) VH: EVQLLESGGGLVQPGGSLSLSCTASGFTFSHYAMSWVRQAPGKGLEWVSVISGSGASTFYADSVKGRFTISRDNSENTLYLQMNSLRAEDTAVYYCAKDSIAVAGSEYFQHWGQGTLVTVSS VL: SYVLTQAPSVSVAPGQTARITCGGNNIGGKTVHWYQQKPGQAPMLVVYDDSDRPSGIPERFSGSKSGNMAILTISRVEAGDEADYYCQLYDIYSDHWVFGGGTKLTVL	no binding (tested: 100 nmol/L)	no binding (tested: 100 nmol/L)	0.0576	0.0869	–	–	–
anti-C2 antibody 83.16 (antibody, IgG4, V domains shown, Recombinant) VH: QLQLQESGPGLVKSSETLSLTCTVSGGPISSSSYYWGWIRQPPGKGLEWIGTIYYSGRTYYNPSLKSRGTISVGTSKNQFSLKLSSVTAADTAVFYCAGGVGVTWDYWGQGTLVTVSS VL: SYDLSQPLSVSVALGQTARITCGGNDIESKNVHWYQQRPGQAPVLVIYRNSNRPSGIPERFSGSNSGNTATLTISRGQGGDEADYYCQVWDSSTVIFGGGTKLTVL	no binding (tested: 100 nmol/L)	no binding (tested: 100 nmol/L)	0.0408	0.0397	–	–	–
anti-C2 antibody 59.45 (antibody, IgG4, V domains shown, Recombinant) VH: QLQLQESGPGLVKTSETLSLTCTVSGGSITSGVYYWGWIRQPPGKGLEWIGSIYHGGNTYNNPSLKSRVTIFIDTSKNQFSLKLSSVTAADTAVYYCAEGVSSGWSYYFDYWGQGTLVTVSS VL: SSELTQDPAVSVALGQTVRITCQGDSLRRFYASWYQQKPGQAPVLVGYGKNNRPSGIPDRFSGSTSGNAASLTITGSQAEDEADYYCNSRDSSGDHLIFGGGTKLTVL	–	–	0.054	0.263	0.124	0.123	–
anti-C2 antibody 139.14 (antibody, IgG4, V domains shown, Recombinant) VH: QVQLRESGPGLMKPSETLSLTCTVSGGSVSSGVYYWTWIRQPPGKGLEWIGSMFYSGNADYNPSLKSRVTISVDTSKNQFSLRLNSVSAADMAVYYCARGYASGWSYYFDYWGQATLVTVSS VL: SSELTQDPTVSVALGQTVRITCQGDSLRTYYASWYQQKPGQAPVLVLYGKNNRPSGIPDRFSGSSSGNTASLTITGAQAEDEADYYCNSRYSSGTHVVFGGGTKLTVL	–	–	0.0599	0.115	0.131	0.208	–
